Experiments:
[1] = target: the molecule itself; assay: right angle light scattering at 340 nm, self-polymerisation, 4 mM ATP
Rv1827, P9WJA9 = target: T1, Rv1827, P9WJA9
T1 chain: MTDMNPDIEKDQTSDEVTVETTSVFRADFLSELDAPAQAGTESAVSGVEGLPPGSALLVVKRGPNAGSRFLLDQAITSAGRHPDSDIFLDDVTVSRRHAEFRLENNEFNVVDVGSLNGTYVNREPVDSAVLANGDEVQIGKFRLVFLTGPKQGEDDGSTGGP

B1: wild-type ParM (other)
chain: MLVFIDDGSTNIKLQWQESDGTIKQHISPNSFKREWAVSFGDKKVFNYTLNGEQYSFDPISPDAVVTTNIAWQYSDVNVVAVHHALLTSGLPVSEVDIVCTLPLTEYYDRNNQPNTENIERKKANFRKKITLNGGDTFTIKDVKVMPESIPAGYEVLQELDELDSLLIIDLGGTTLDISQVMGKLSGISKIYGDSSLGVSLVTSAVKDALSLARTKGSSYLADDIIIHRKDNNYLKQRINDENKISIVTEAMNEALRKLEQRVLNTLNEFSGYTHVMVIGGGAELICDAVKKHTQIRDERFFKTNNSQYDLVNGMYLIGN
notes: Unlabelled, without His6 tag (plasmid pJSC1); also called ParM wild-type
B1 was tested, and the “critical concentration (filament formation, in presence of ATP)” value [1] was 2.5 µM.

B2: PknB kinase domain (PknB 1-279) (protein)
chain: MTTPSHLSDRYELGEILGFGGMSEVHLARDLRLHRDVAVKVLRADLARDPSFYLRFRREAQNAAALNHPAIVAVYDTGEAETPAGPLPYIVMEYVDGVTLRDIVHTEGPMTPKRAIEVIADACQALNFSHQNGIIHRDVKPANIMISATNAVKVMDFGIARAIADSGNSVTQTAAVIGTAQYLSPEQARGDSVDARSDVYSLGCVLYEVLTGEPPFTGDSPVSVAYQHVREDPIPPSARHEGLSADLDAVVLKALAKNPENRYQTAAEMRADLVRVHNG
B2 was tested, and the KM (Rv1827, P9WJA9) was “KM, 20 µM”, the “KM value (Michaelis-Menten, initial rate against Rv1827 concentration)” value (Rv1827, P9WJA9) was “a KM value of 22 µM” and the kcat (Rv1827, P9WJA9) was “kcat 4.7 min^-1”. For the same protein, the “kcat (300 µM Rv1827, ATP varied)” value (Rv1827, P9WJA9) was “kcat, 4.9 min^-1”, the maximal rate (Rv1827, P9WJA9) was “a maximal rate of 1.2 µM min^-1” and the specific activity (Rv1827, P9WJA9) was “the specific activity of the PknB kinase domain was calculated for 40 µM ATP as 5.9 s^-1”.
